In patent publication US7521047 (GPC BIOTECH, dated 2009):

Legend:
[1] = target: T1, HLA-DR (DRA*0101/DRB1*0401) on PRIESS cells (human, UniProt P01903 26-254; P01911 30-266); experiment: cell-based or functional assay
T1 MHC II alpha: not shown
T1 MHC II beta: not shown

[2] = target: T2, BSA (bovine, UniProt P02769 25-607); experiment: ELISA, coated antigen
T2 construct: negative control antigen; also called bovine serum albumine

[3] = target: T3, human MHC class II DR protein (DRA*0101/DRB1*0401), purified from PRIESS cells (human, UniProt P01903 26-254; P01911 30-266, limits assumed); experiment: SPR (BIAcore), Fab, chip density 500 RU MHCII
T3 construct: mature; also called HLA-DR protein; MHCII
T3 MHC II alpha: not shown
T3 MHC II beta: not shown

[4] = target: T3, human MHC class II DR protein …; experiment: BiaCore, IgG4
Method: The affinities for anti-HLA antibody fragments of the invention were measured as follows. All measurements were conducted in HBS buffer (20 mM HEPES, 150 mM NaCl, pH 7.4) at a flow rate of 20 µl/min at 25° C. on a BIAcore3000 instrument (Biacore AB, Sweden). MHC class II DR protein (prepared as example 1) was diluted in 100 mM sodium acetate pH 4.5 to a concentration of […], and coupled to a CM5 chip (Biacore AB) using standard EDC-NHS coupling chemistry with subsequent ethanolamine treatment as manufacturers directions. The coating density of MHCII was adjusted to between 500 and 4000 RU. Affinities were measured by injection of 5 different concentrations of the different antibodies and using the standard software of the Biacore instrument. Regeneration of the coupled surface was achieved using 10 mM glycine pH 2.3 and 7.5 mM NaOH.

[5] = target: T4, chimeric 0401-IE class II molecule on cells of transgenic mice (human/murine chimera); experiment: cell-based or functional assay
[6] = target: T1, HLA-DR (DRA*0101/DRB1*0401) on PRIESS …; experiment: cell-based or functional assay
[7] = target: HLA-DR on ARH-77 cells (human); experiment: cell-based or functional assay
[8] = target: HLA-DR on GRANTA-519 cells (human); experiment: cell-based or functional assay
[9] = target: HLA-DR on KARPAS-422 cells (human); experiment: cell-based or functional assay
[10] = target: HLA-DR on KARPAS-299 cells (human); experiment: cell-based or functional assay
[11] = target: HLA-DR on DOHH-2 cells (human); experiment: cell-based or functional assay
[12] = target: HLA-DR on SR-786 cells (human); experiment: cell-based or functional assay
[13] = target: HLA-DR on MHH-CALL-4 cells (human); experiment: cell-based or functional assay
[14] = target: HLA-DR on MN-60 cells (human); experiment: cell-based or functional assay
[15] = target: HLA-DR on BJAB cells (human); experiment: cell-based or functional assay
[16] = target: HLA-DR on RAJI cells (human); experiment: cell-based or functional assay
[17] = target: HLA-DR on L-428 cells (human); experiment: cell-based or functional assay
[18] = target: HLA-DR on HDLM-2 cells (human); experiment: cell-based or functional assay
[19] = target: HLA-DR on HD-MY-Z cells (human); experiment: cell-based or functional assay
[20] = target: HLA-DR on KM-H2 cells (human); experiment: cell-based or functional assay
[21] = target: HLA-DR on L1236 cells (human); experiment: cell-based or functional assay
[22] = target: HLA-DR on BONNA-12 cells (human); experiment: cell-based or functional assay
[23] = target: HLA-DR on HC-1 cells (human); experiment: cell-based or functional assay
[24] = target: HLA-DR on NALM-1 cells (human); experiment: cell-based or functional assay
[25] = target: HLA-DR on L-363 cells (human); experiment: cell-based or functional assay
[26] = target: HLA-DR on EOL-1 cells (human); experiment: cell-based or functional assay
[27] = target: HLA-DR on LP-1 cells (human); experiment: cell-based or functional assay
[28] = target: HLA-DR on RPMI-8226 cells (human); experiment: cell-based or functional assay
[29] = target: HLA-DR on MHH-PREB-1 cells (human); experiment: cell-based or functional assay
[30] = target: T4, chimeric 0401-IE class II molecule on …; experiment: cell-based or functional assay; remark: listed apart in the source
[31] = target: T3, human MHC class II DR protein …; experiment: SPR (BIAcore), IgG4 over MHCII on CM5 chip
[32] = target: T2, BSA; experiment: ELISA, purified coated protein, OD at 370 nm minus background

T2 sequence (P02769 25-607 limits assumed): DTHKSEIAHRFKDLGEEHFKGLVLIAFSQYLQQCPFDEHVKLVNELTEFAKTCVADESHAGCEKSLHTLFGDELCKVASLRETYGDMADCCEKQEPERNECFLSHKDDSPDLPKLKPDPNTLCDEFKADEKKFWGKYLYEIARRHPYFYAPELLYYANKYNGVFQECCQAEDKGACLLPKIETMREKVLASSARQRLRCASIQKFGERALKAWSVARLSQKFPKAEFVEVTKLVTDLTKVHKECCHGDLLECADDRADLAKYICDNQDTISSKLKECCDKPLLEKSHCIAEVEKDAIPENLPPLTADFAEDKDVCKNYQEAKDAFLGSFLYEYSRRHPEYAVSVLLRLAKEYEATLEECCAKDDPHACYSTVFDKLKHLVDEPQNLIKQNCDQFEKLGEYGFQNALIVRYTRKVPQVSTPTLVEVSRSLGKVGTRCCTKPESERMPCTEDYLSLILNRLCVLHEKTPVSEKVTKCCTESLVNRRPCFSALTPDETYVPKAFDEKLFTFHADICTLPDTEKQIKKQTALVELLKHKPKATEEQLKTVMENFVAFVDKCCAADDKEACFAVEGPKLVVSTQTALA

B1: MS-GPC-1 Fab (Fab, V domains shown)
VH: QVQLKESGPALVKPTQTLTLTCTFSGFSLSTSGVGVGWIRQPPGKALEWLALIDWDDDKYYSTSLKTRLTISKDTSKNQVVLTMTNMDPVDTATYYCARQYGHRGGFDHWGQGTLVTVSS
VL: DIVLTQPPSVSGAPGQRVTISCSGSSSNIGSNYVSWYQQLPGTAPKLLIYDNNQRPSGVPDRFSGSKSGTSASLAITGLQSEDEADYYCQSYDFNESVFGGGTKLTVLG
notes: Fab from pMx9_Fab: VH-CH1 with FLAG tag and STREP tag II, VL-CL; VH residue 1 is Q in Fab; also called 17-Fab; 17
B1 was tested, and the “EC50 of cell killing, cross-linked Fab, bivalent agent” value [1] was 54 nM, the binding result [2] was “no binding” and the Kd [3] was 820 nM. For the same binder, the koff [3] was 0.053 s⁻¹ and the kon [3] was 63900 M⁻¹ s⁻¹.

B2: MS-GPC-8-27-41 IgG4 (antibody, V domains shown)
VH: QVQLKESGPALVKPTQTLTLTCTFSGFSLSTSGVGVGWIRQPPGKALEWLALIDWDDDKYYSTSLKTRLTISKDTSKNQVVLTMTNMDPVDTATYYCARSPRYRGAFDYWGQGTLVTVSS
VL: DIVLTQPPSVSGAPGQRVTISCSGSESNIGNNYVQWYQQLPGTAPKLLIYDNNQRPSGVPDRFSGSKSGTSASLAITGLQSEDEADYYCQSYDMNVHVFGGGTKLTVLG
notes: also called 1D09C3; IgG form of MS-GPC-8-27-41
B2 was tested, and the Kd [4] was 0.6 nM, the koff [4] was 0.00041 s⁻¹ and the “IC50 value for inhibition of T cell proliferation” value [5] was 20 nM. The “% Killing by mAb, 50 nM, 4 h” value [6] was 88%, the “% Killing by mAb, 50 nM, 4 h” value [7] was 85% and the “% Killing by mAb, 50 nM, 4 h” value [8] was 78%. For the same binder, the “% Killing by mAb, 50 nM, 4 h” value [9] was 66%, the “% Killing by mAb, 50 nM, 4 h” value [10] was 82% and the “% Killing by mAb, 50 nM, 4 h” value [11] was 59%. The “% Killing by mAb, 50 nM, 4 h” value [12] was 53%, the “% Killing by mAb, 50 nM, 4 h” value [13] was 63% and the “% Killing by mAb, 50 nM, 4 h” value [14] was 69%. For the same binder, the “% Killing by mAb, 50 nM, 4 h” value [15] was 71%, the “% Killing by mAb, 50 nM, 4 h” value [16] was 84% and the “% Killing by mAb, 50 nM, 4 h” value [17] was 91%. For the same binder, the “% Killing by mAb, 50 nM, 4 h” value [18] was 88%, the “% Killing by mAb, 50 nM, 4 h” value [19] was 69% and the “% Killing by mAb, 50 nM, 4 h” value [20] was 86%. The “% Killing by mAb, 50 nM, 4 h” value [21] was 63%, the “% Killing by mAb, 50 nM, 4 h” value [22] was 92% and the “% Killing by mAb, 50 nM, 4 h” value [23] was 93%. The “% Killing by mAb, 50 nM, 4 h” value [24] was 82%, the “% Killing by mAb, 50 nM, 4 h” value [25] was 26% and the “% Killing by mAb, 50 nM, 4 h” value [26] was 69%. For the same binder, the “% Killing by mAb, 50 nM, 4 h” value [27] was 73%, the “% Killing by mAb, 50 nM, 4 h” value [28] was 29% and the “% Killing by mAb, 50 nM, 4 h” value [29] was 4%. The “EC50 of cell killing, IgG4” value [1] was 1.1 nM, the “IC50 of inhibition of IL-2 secretion from T-Hyb 1 cells” value [30] was 0.28 nM and the “Maximum inhibition(%) of IL-2 secretion” value [30] was 100%. It also gave a Kd [31] of 0.31 nM, a koff [31] of 3.1e-05 s⁻¹ and a kon [31] of 110000 M⁻¹ s⁻¹. B2: no binding [32].
